Results from paper doi:10.1101/382655.
Residue numbers refer to the chain shown, from its start. Like-named read-outs stand apart in the source and are kept apart here.

B1: H1 (design II) (dsDNA)
DNA 1: GGCCATGCAGTCACTATGAATCAACTACTTAGACC
DNA 2: GGTCTAAGTAGTTGATTCATAGTGACTGCATGGCC
modifications: 3' phosphate link on bottom strand (to dye)
B2: H' (design II) (dsDNA)
DNA 1: GGCCAAAAAAGCATTGCTTATCAATTTGTTGCACC
DNA 2: GGTGCAACAAATTGATAAGCAATGCTTTTTTGGCC
modifications: 3' phosphate link on bottom strand (to dye)
B3: H' (design I) (dsDNA)
DNA 1: TGGCCAAAAAAGCATTGCTTATCAATTTGTTGCACC
DNA 2: TGGTGCAACAAATTGATAAGCAATGCTTTTTTGGCC
B4: H'44A (design I) (dsDNA)
DNA 1: B3 DNA 1 with T31A
DNA 2: B3 DNA 2 with A7T
B5: H1_CTloop (design I) (dsDNA)
DNA 1: TGGCCATGCAGTCACTATGAATCAACTACTTAGACC
DNA 2: TGGTCTAAGTAGTTGATTCATTCTGACTGCATGGCC
B6: H1 (design I) (dsDNA)
DNA 1: B5 DNA 1
DNA 2: B5 DNA 2 with T22A, C23G

Columns and labels:
[1] = molecular target: T1, Integration host factor (IHF) (UniProt P0A6X7;P0A6Y1 2-99;1-94); test: equilibrium fluorescence titration
T1 sequence (P0A6X7 2-99, chain 1 of 2): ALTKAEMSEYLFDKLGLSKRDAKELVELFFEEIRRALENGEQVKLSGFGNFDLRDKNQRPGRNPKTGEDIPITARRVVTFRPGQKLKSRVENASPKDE
T1 sequence (P0A6Y1 whole entry, chain 2 of 2): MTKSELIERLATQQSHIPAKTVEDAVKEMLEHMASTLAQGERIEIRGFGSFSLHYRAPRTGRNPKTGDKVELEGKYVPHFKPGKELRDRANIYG

[2] = molecular target: T1, Integration host factor (IHF); test: equilibrium fluorescence titration, extrapolated
[3] = molecular target: T1, Integration host factor (IHF); test: fluorescence lifetime FRET
[4] = molecular target: T1, Integration host factor (IHF); test: fluorescence lifetime FRET; remark: listed apart in the source

| Binder | Kd [1] | other results |
| --- | --- | --- |
| B1 | 1990 ± 50 nM | – |
| B2 | 1500 ± 200 nM | – |
| B3 | 1900 ± 100 nM | Kd [2]: 0.023 nM |
| B4 | – | binding result [3]: binds |
| B5 | 16 ± 3 nM | – |
| B6 | – | binding result [4]: binds |
